Amyloid nucleation score data for 99 substances are collected here from the supplement of paper PMC12042874.

± gives the uncertainty stated by the source.

The series is described as follows: amyloid nucleation score (Sup35N fusion, yeast selection) (log enrichment); library NNK3; higher = more nucleation; inactive = no reads after selection. In short, it runs like this:
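Sup35N was fused to peptides of 20 random codons and expressed in psi-negative yeast, which were induced with 100 μM copper sulfate for 24 hours and then grown on medium lacking adenine and uracil for 7 days at 30°C. Plasmid inserts from input and output were sequenced on Illumina. The nucleation score is the DiMSum log enrichment of output over input reads, centred on the mode score of non-aggregating sequences. Sequences with under 100 input reads were left out, and random libraries had three technical output replicates.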
Take AVFRLSSTISECDLHACAPV: the amyloid nucleation score result was “inactive”. In the case of KFFCW it was “inactive”.

On to DTYMISNVAGNSRYALHGFV, for which the amyloid nucleation score entry is “inactive”. In the case of PNWNYSSLGQTSGQSSRHTS it was “inactive”. For the substance FHTFSVCVGRGTMYYRALEE, the amyloid nucleation score stood at 0.277 ± 0.23. Regarding NMVTYTMIWLWMSMAAPS, the amyloid nucleation score entry was “inactive”. As for IKFIERWYQFTYVHCLQVMG, the amyloid nucleation score was -0.247 ± 0.64. LASSQLIYRTSRTCPTLLPL: the amyloid nucleation score worked out at 1.3 ± 0.1. For GAFMLEGAIRRFS, the amyloid nucleation score entry is “inactive”.

As to AYMCCYDAYTPRRSRCDWYI, the amyloid nucleation score was -0.402 ± 1.1.

For KWSLFLYRHGWCRLAGTLLV, the amyloid nucleation score was -0.443 ± 1. On to WYYQVKMISVCSLIEGMWTS, for which the amyloid nucleation score entry was “inactive”. Under KMCLLFVREFRMLFACVWVT stands “inactive”; under DVNGR, “inactive”. Under FFNDSYIRYFSCM stands 0.02 ± 0.77; under GGMGSLCSTREGMDWCPRGY, “inactive”; under IYSTVSYQGTVWRKYWQMNG, “inactive”.

Regarding HDMVREVDPILFMTLFRGGF, the amyloid nucleation score was -0.517 ± 1.2. With NFCFLCSWCIL, the amyloid nucleation score came to 2.56 ± 0.052. Under QNPTWC stands “inactive”; under ALVDILFLDLGLTLDLRVGL, “inactive”; under LKRYFI, “inactive”. For the substance LLIFMFCLAFVFFFMAKDGN, the amyloid nucleation score entry is “inactive”.

Turning to VLWAFNLMLVDWRIRFQNWA, the amyloid nucleation score result is “inactive”. Turning to FYVNCFSL, the amyloid nucleation score turned out to be 1.01 ± 0.11. Under HVQYLLHKFLTLVQMF stands “inactive”; under CDVHL, “inactive”.

Regarding MSVACFSLASVFQWGFFASC, the amyloid nucleation score entry is “inactive”.

Consider FACRVGGEHGGV, for which the amyloid nucleation score result was “inactive”.

As for WVNKEDESVVWYIWFGIECC, the amyloid nucleation score result was “inactive”.

Take SDVYWISLFVATSICCRSGA: the amyloid nucleation score entry was “inactive”. In the case of IYCWCSVIDTGRAARLRVIK, the amyloid nucleation score entry is “inactive”. For the substance YNDKGTV, the amyloid nucleation score entry was “inactive”.

Take FLDSLYKRGCNKFGQLWR: the amyloid nucleation score entry was “inactive”.

In turn, GCTFRNWIWWLHRFDKMR had an amyloid nucleation score of 0.861 ± 0.15. Under IGAIYACRLFVRGLASFLTL stands “inactive”; under LCPIAMCCSG, “inactive”. Regarding FVSSYNIENV, the amyloid nucleation score result was “inactive”. On to MSNGIVYNELFSVVRWS, for which the amyloid nucleation score was determined as 1.67 ± 0.071. In the case of IVSALQFAEAKL, the amyloid nucleation score result was “inactive”. Take LYGLRHYILSEHFGGFVLVG: the amyloid nucleation score entry is “inactive”. In the case of AQRGIYWTTKVD it was “inactive”; in that of YLSGS, “inactive”. Under NHQLGIGYFCDTYLCDHWDP stands “inactive”; under LKWQVRHLWGNDVVGHRYTH, -0.546 ± 0.6. In the case of VLSGNFNTSDFLLMFLITSQ it was “inactive”.

Consider IGINVRALRRGLTLVPL, for which the amyloid nucleation score entry was “inactive”.

For the substance GIVALCRTCDNRRMRVSVGV, the amyloid nucleation score entry was “inactive”.

Consider AKQVGLY, for which the amyloid nucleation score entry is “inactive”. Turning to SKDNWSRSTYTGACLR, the amyloid nucleation score entry was “inactive”. On to QGMSAFYYVYGLKLWLHLLL, for which the amyloid nucleation score result is “inactive”. Substance CMLSMFSCCCFDSPRRYCH registered an amyloid nucleation score of 2.36 ± 0.051. On to FIYNVDVHCASSVNIGWGQK, for which the amyloid nucleation score stood at 2.83 ± 0.08. Consider SLGNITVPAT, for which the amyloid nucleation score result is “inactive”.

Regarding SLSWHK, the amyloid nucleation score entry is “inactive”. In the case of LAYWPSNGCVP, the amyloid nucleation score entry is “inactive”.

For KLLLYFKYLMPVELISWSTL, the amyloid nucleation score entry was “inactive”. For the substance ICQWDVKMPRCATG, the amyloid nucleation score result was “inactive”. Consider DAIRQTSHMKLRSSYMQARR, for which the amyloid nucleation score entry is “inactive”. Turning to YYFLLIGSW, the amyloid nucleation score entry is “inactive”.

With YNSIMFNGW, the amyloid nucleation score result is “inactive”. Under VNCWLLAVFTASSATLHNTR stands 0.776 ± 0.14. On to EGSEGSDMSRTFFYICYFIL, for which the amyloid nucleation score result was “inactive”. For the substance TYDTGWKCREPNVTIFNVWL, the amyloid nucleation score was 2.91 ± 0.053.

For TTFIN, the amyloid nucleation score result is “inactive”. With MSIVAGENLIGKV, the amyloid nucleation score result is “inactive”. Under NVGNRCYWWVLMARLLSIFR stands “inactive”; under SVRTLLVTHFLRKPLALI, “inactive”. As to IVGDGDGQTCCVSRSLCGMV, the amyloid nucleation score result was “inactive”. The substance YCCTLVTRCSVMNTL displayed an amyloid nucleation score of 2.46 ± 0.065. Take LRYASTSSFLVFQRDTLANE: the amyloid nucleation score result is “inactive”.

On to ITWSFTVDMDALCCGPWNVR, for which the amyloid nucleation score was found to be 3.18 ± 0.078. Regarding YRCFLNFIEMIDTCAGDLES, the amyloid nucleation score result is “inactive”. On to AHCCSFRAEFV, for which the amyloid nucleation score worked out at 1.75 ± 0.096. On to CLFGLGVEAKVFIYQGDDQS, for which the amyloid nucleation score entry was “inactive”. CQVWFTYYYLLGSTNDSMAR: the amyloid nucleation score entry is “inactive”. SLRPMLYTSYSS registered an amyloid nucleation score of 0.914 ± 0.17. Under VDSSRIKCSNVN stands “inactive”; under GPWLLRASNAHTWTRYGLVK, “inactive”; under VACCAGFDNRAVLWGCANPI, “inactive”. In turn, WCVMPFNSCTTLMYKFSEN showed an amyloid nucleation score of 1.66 ± 0.071. In the case of IVALQRSFSNNT it was “inactive”. With CVEVY, the amyloid nucleation score entry is “inactive”.

With YRAKNSDRCPGDAYTYFVLR, the amyloid nucleation score entry is “inactive”. For TRLWDKD, the amyloid nucleation score entry was “inactive”. For FTHNHK, the amyloid nucleation score entry is “inactive”. In the case of ISRNRQRSVIPGTTKLCMWV, the amyloid nucleation score entry is “inactive”. Consider WSDQTDRAGHFAVFNLSMGY, for which the amyloid nucleation score result is “inactive”. On to CGCYSLMFFSMTCNEKLLSL, for which the amyloid nucleation score entry was “inactive”. As for QRMMHFVLCVGFDRGIVPVK, the amyloid nucleation score result was “inactive”. For PRMRA, the amyloid nucleation score entry is “inactive”. With LPLSFSL, the amyloid nucleation score entry is “inactive”. As for AYMLGITQNNGNHLNSSRRR, the amyloid nucleation score entry was “inactive”. In the case of RAQKVPCVIFSYTWIRSMSD it was “inactive”; in that of RVMCRFIVRSLYAPDSHSLT, 1.54 ± 0.073; in that of NRIFIGQVFRIIGPWLGMYH, “inactive”.

With NDLWIEMFKS, the amyloid nucleation score result is “inactive”.

In the case of NCLGPWPCLTTILYLRSLEF, the amyloid nucleation score result is “inactive”. Regarding NTFCIFALTYIQWVPYLAMF, the amyloid nucleation score result was “inactive”.
